Reference: paper PMC7680125

Test system: Isw1 alone (Saccharomyces cerevisiae)
Assay: EMSA
Conditions: 35 mM Na-HEPES pH 7.8, 5 mM MgCl2, 0.1 mM EGTA, 0.02 M EDTA (so in the source), 70 mM NaCl, 0.1 mg/ml BSA, 5-8% glycerol, 40 uM 2-mercaptoethanol, 30 C, 30 min …

With 0N70 mononucleosome the Kd was 0.0219 µM.
